The results in this text go back to article PMC6771245, “CMKLR1-targeting peptide tracers for PET/MR imaging of breast cancer” (Theranostics, 2019).

For data set [1], the target named is T1, huCMKLR1 (Homo sapiens, UniProt Q99788).
T1 construct: expressed in transfected cells; host or cells: HEK293a (membrane preparations)
T1 sequence (Q99788 1-373): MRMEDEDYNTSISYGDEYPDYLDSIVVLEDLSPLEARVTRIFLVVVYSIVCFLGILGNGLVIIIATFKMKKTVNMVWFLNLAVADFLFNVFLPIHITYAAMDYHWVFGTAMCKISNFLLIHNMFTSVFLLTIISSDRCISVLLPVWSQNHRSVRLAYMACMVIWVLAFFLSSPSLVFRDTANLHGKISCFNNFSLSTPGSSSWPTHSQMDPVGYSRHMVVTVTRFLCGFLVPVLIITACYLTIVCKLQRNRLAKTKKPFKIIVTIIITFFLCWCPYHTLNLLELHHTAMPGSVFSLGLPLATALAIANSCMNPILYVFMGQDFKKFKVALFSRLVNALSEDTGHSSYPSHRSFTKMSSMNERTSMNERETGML
Description: Calcium mobilization assay. In kind it is cell-based. As to conditions: HEK293a huCMKLR1 Gα16 cells, Fluo-4 AM; three independent experiments, mean ± SD; read-out: Ca^2+ assay EC50. Here is the method: (§1) For in vitro analysis, HEK293a stably transfected with huCMKLR1 and Gα16 were used. For the in vivo mouse model, the human breast cancer cell line DU4475 with endogenous CMKLR1 expression and the target-negative human lung carcinoma cell line A549 were used. All cell lines were obtained from ATCC/LGC Standards (Wesel, Germany) and were cultured in RPMI1640 medium containing 10% fetal bovine serum (both from Biochrom, Berlin, Germany) and, in case of transfected cells, selection agents G418 (Biochrom, Berlin, Germany) and zeocin (Invitrogen, Carlsbad, USA).
Optical ViewPlate 96-well microplates (PerkinElmer, Waltham, USA) were coated with poly-D-lysine (10 µg/mL, 50 µL/well) for 30 minutes at 37 °C, washed with PBS and air dried before seeding 40,000 HEK293a huCMKLR1 Gα16 cells per well. The next day, cells were starved with serum-free medium for 30 minutes and incubated with loading medium consisting of serum-free medium with 2.5 mM probenicid (Sigma-Aldrich, St. Louis, USA) and 2 µM Fluo-4 AM (Thermo Fisher Scientific, Waltham, USA). After a loading time of 45 minutes, cells were washed with 100 μL C1 buffer (130 mM NaCl, 5 mM KCl, 10 mM 4-(2-hydroxyethyl)-1-piperazineethanesulfonic acid [HEPES], 2 mM CaCl2, 10 mM glucose) followed by 20 minutes of incubation in the dark. After another washing and incubation cycle, the cell plate was placed into the CellLux Calcium Imaging System (PerkinElmer, Waltham, USA) and the assay was performed automatically according to the following protocol. After a baseline measurement for 30 seconds, the ligands (prepared in C1 buffer with 0.5% BSA in double concentration and pipetted in a U-bottom plate) were added on top of the cells and the fluorescence intensity was recorded for further 60 seconds. Obtained raw data were analyzed using AssayPro (PerkinElmer, Waltham, USA). After spatial uniformity correction, maximum response values (F) were normalized to baseline values (F0) of each well using the following equation:
response = ΔF/F0 = (F - F0)/F0.
(§2) All statistical analyses were performed using GraphPad Prism 5.04. EC50/IC50 values were determined by nonlinear sigmoidal curve fitting with variable slope setting, and normalized response for competitive binding results. Multiple group comparisons were done by a two-way ANOVA and Bonferroni post hoc test. All presented data are based on independent experiments. Normalizations and statistics are further defined in each figure legend.
(A change in cytosolic calcium serves as a functional read-out for many receptors and channels.)

For data set [2], the target named is T1, huCMKLR1. Description: Competitive radioligand binding with ^125I-chemerin-9, membranes of HEK293a cells stably expressing huCMKLR1 and Gα16. As to conditions: unlabeled compound; radioligand ^125I-chemerin-9, 5 µg membrane, 1 h 37 °C; three independent experiments, mean ± SD; read-out: competition binding IC50 w/o ^natGa. The protocol:
as §1
Competitive binding studies were performed with cell membrane preparations. […] […].
as §2

Another data set can be described thus: in vivo. As to conditions: female, mouse, iv, 10 MBq, total radioactivity. The text has this:
(§3) For in vivo experiments, at least 8-week-old female athymic NMRI-Foxn1^nu /Foxn1^nu mice (Janvier Labs, Saint-Berthevin, France) were used. Animal care followed institutional guidelines and all experiments were approved by local animal research authorities. For the generation of tumor xenografts, 5 x 10^6 cells of both DU4475 and A549 cells were inoculated subcutaneously into the right and left shoulder, respectively (1:1 phosphate-buffered saline [PBS]/Matrigel Basement Membrane Matrix High Concentration, Corning, Corning, USA). Part of the animals received SW13 lung cancer cells as a CMKLR1-negative control tumor. For the analysis of biodistribution, only data of […] and A549 xenograft tumors are used. Tumors were allowed to grow for two to four weeks (tumor volume > 100 mm^3) after cell inoculation.
(§4) Radiolabeling experiments were performed on a Modular Lab PharmTracer synthesis module (Eckert & Ziegler, Berlin, Germany) which allows fully automated cassette-based labeling of gallium tracers utilizing a pharmaceutical grade ^68Ge/^68Ga generator (GalliaPharm, 1.85 GBq, good manufacturing practice [GMP]-certified; Eckert & Ziegler GmbH, Berlin, Germany). Cassettes were GMP-certified and sterile. They were used without pre-conditioning of the cartridges. The gallium generator was eluted with aqueous HCl (0.1 M, 7 mL) and the eluate was purified on an ion-exchange cartridge followed by elution using 1 mL of 0.1 M HCl in acetone. The peptide-DOTA conjugate (50 µg from a stock solution 1 mg/mL in 10% dimethyl sulfoxide [DMSO] in water) was mixed with 500 µL 0.1 M HEPES buffer (pH 7) and heated for 500 seconds at 95 °C. After the reaction, the mixture was passed through a C-18 cartridge for purification and the tracer was eluted from the cartridge with ethanol. In order to control the quality of radiolabeling, the radiochemical yield, purity, and specific activity for all five peptide-DOTA conjugates and each individual labeling experiment was determined. Overall, a radiochemical yield of 82.1% ± 6.7%, a radiochemical purity of 98.1 ± 4.6% and a molar activity of 8.6 GBq/µmol ± 2.7 GBq/µmol was achieved (Table S1). Before animal injection, the activity was equilibrated to neutral pH using 1 M sodium hydrogen carbonate. It was further diluted with saline to ≤ 10% ethanol.
(§5) Tumor-bearing mice were injected with approximately 10 MBq of ^68Ga-labeled DOTA-peptide or 1 MBq of ^177Lu-labeled DOTA-peptide to the tail vein via a catheter. Mice were sacrificed and dissected one or two hours after injection. Tumor, blood, stomach, pancreas, small intestine, colon, liver, spleen, kidney, heart, lung, muscle and femur samples were weighed and uptake of radioactivity was measured by a gamma counter. To determine the effect of unlabeled ligand on the tumor uptake, 200 nmol CG34 peptide (100-fold excess) was co-injected.

Data set [3] relates to DU4475/A549 xenograft model. Description: in vivo. As to conditions: mouse.
Description: as §3, §4, §5

Setting [4] is: athymic NMRI-Foxn1^nu/Foxn1^nu, DU4475 tumor uptake.
The mark [5] stands for this setting: athymic NMRI-Foxn1^nu/Foxn1^nu, blood uptake.
Where [6] appears, read: athymic NMRI-Foxn1^nu/Foxn1^nu, heart uptake.
[7] abbreviates: athymic NMRI-Foxn1^nu/Foxn1^nu, kidney uptake.
[8] abbreviates: athymic NMRI-Foxn1^nu/Foxn1^nu, liver uptake.
Setting [9] is: athymic NMRI-Foxn1^nu/Foxn1^nu, lung uptake.
The mark [10] stands for this setting: athymic NMRI-Foxn1nu/Foxn1nu, colon uptake.
Where [11] appears, read: athymic NMRI-Foxn1nu/Foxn1nu, femur uptake.
Where [12] appears, read: athymic NMRI-Foxn1nu/Foxn1nu, pancreas uptake.
Where [13] appears, read: athymic NMRI-Foxn1nu/Foxn1nu, small intestine uptake.
Setting [14] is: athymic NMRI-Foxn1nu/Foxn1nu, stomach uptake.
The mark [15] stands for this setting: athymic NMRI-Foxn1nu/Foxn1nu, tumor-to-blood ratio.
The mark [16] stands for this setting: athymic NMRI-Foxn1nu/Foxn1nu, tumor-to-kidney ratio.
Where [17] appears, read: athymic NMRI-Foxn1nu/Foxn1nu, tumor-to-liver ratio.
[18] abbreviates: athymic NMRI-Foxn1nu/Foxn1nu, tumor-to-muscle ratio.
Where [19] appears, read: athymic NMRI-Foxn1nu/Foxn1nu, tumor-to-pancreas ratio.

pEC50, pIC50: −log10 of the molar value. *1 amine or outer side, *2 acyl side, *3 side chain or, on linkers, in order; H or OH if unused. Where a SMILES comes first, the peptide text is derived from it. [ ]: non-standard residue; d: D form. The star is where a group is joined. DOTA = O=C(O)CN1CCN(CC(=O)O)CCN(CC(=O)*)CCN(CC(=O)O)CC1; NH(CH2)9CO = O=C(CCCCCCCCCN[*:1])[*:2]; Hyp = O=C(O)[C@@H]1C[C@@H](O)CN1; Tic = O=C(O)[C@@H]1Cc2ccccc2CN1; Cha = N[C@@H](CC1CCCCC1)C(=O)O; Cit = NC(=O)NCCC[C@H](N)C(=O)O; Ahx = NCCCCCC(=O)O

One may read the pEC50 as −log10 of the EC50, conventionally taken in molar units. Consider `CSCC[C@H](NC(=O)CNC(=O)[C@@H]1CCCN1C(=O)[C@H](CC1CCCCC1)NC(=O)[C@@H](N)Cc1ccc(O)cc1)C(=O)N[C@@H](Cc1ccc(O)cc1)C(=O)N[C@@H](C)C(=O)N[C@@H](Cc1ccccc1)C(=O)N[C@H](Cc1ccccc1)C(=O)O` [CG36] (H-Y[Cha]PGMYAF[dF]-OH), for which the pEC50 at huCMKLR1 [1] was 9.05. The pIC50 at huCMKLR1 [2] was 10.00.
The matching figures for `C[C@@H](NC(=O)[C@H](Cc1ccccc1)NC(=O)[C@H](CCCNC(N)=O)NC(=O)CNC(=O)[C@@H]1C[C@@H](O)CN1C(=O)[C@H](CC1CCCCC1)NC(=O)[C@@H](N)Cc1ccc(O)cc1)C(=O)N1Cc2ccccc2C[C@H]1C(=O)N[C@@H](CO)C(=O)O` [CG34] (H-Y[Cha][Hyp]G[Cit]F[dA][Tic]S-OH): 9.40 and 9.00.
As usually defined, the tissue uptake is the share of the injected amount in each gram of the tissue. Take `C[C@@H](NC(=O)[C@H](Cc1ccccc1)NC(=O)[C@H](CCCNC(N)=O)NC(=O)CNC(=O)[C@@H]1C[C@@H](O)CN1C(=O)[C@H](CC1CCCCC1)NC(=O)[C@H](Cc1ccc(O)cc1)NC(=O)CCCCCCCCCNC(=O)CN1CCN(CC(=O)O)CCN(CC(=O)O)CCN(CC(=O)O)CC1)C(=O)N1Cc2ccccc2C[C@H]1C(=O)N[C@@H](CO)C(=O)O` [[^68Ga]Ga-DOTA-ADX-CG34, metal not drawn] ({DOTA}-[NH(CH2)9CO]Y[Cha][Hyp]G[Cit]F[dA][Tic]S-OH): the tissue uptake at 1 h in the data set “in vivo” (athymic NMRI-Foxn1^nu/Foxn1^nu, A549 tumor uptake) came out at 2.7 %ID/g; in “in vivo” (setting [4]), 6.2 %ID/g; in the data set “in vivo” (setting [5]), 2.8 %ID/g; in “in vivo” (setting [6]), 2.2 %ID/g; in the data set “in vivo” (setting [7]) it was 10.3 %ID/g; in the data set “in vivo” (setting [8]), 14.2 %ID/g. Besides, the tissue uptake at 1 h in “in vivo” (setting [9]) came to 7.1 %ID/g; in “in vivo” (athymic NMRI-Foxn1^nu/Foxn1^nu, muscle uptake) it was 1.1 %ID/g; in the data set “in vivo” (athymic NMRI-Foxn1^nu/Foxn1^nu, spleen uptake), 7.8 %ID/g; in “in vivo” (setting [10]) it was 3.2 %ID/g; in “in vivo” (setting [11]) it was 1.3 %ID/g; in the data set “in vivo” (setting [12]), 1.7 %ID/g. In addition, the results for the tissue uptake at 1 h in the data set “in vivo” (setting [13]) and in “in vivo” (setting [14]) were 3.8 %ID/g and 2.2 %ID/g, respectively. Besides, the tissue uptake at 2 h in the data set “in vivo” (setting [4]) is 4.2 %ID/g; in “in vivo” (setting [5]), 0.8 %ID/g; in the data set “in vivo” (setting [6]), 1.2 %ID/g; in “in vivo” (setting [7]), 5.5 %ID/g; in the data set “in vivo” (setting [8]), 12.5 %ID/g; in “in vivo” (setting [9]), 3.9 %ID/g. Besides, the tissue uptake at 2 h in the data set “in vivo” (setting [10]) worked out at 2.3 %ID/g; in “in vivo” (setting [11]), 0.7 %ID/g; in “in vivo” (athymic NMRI-Foxn1nu/Foxn1nu, muscle uptake) it was 0.6 %ID/g; in “in vivo” (setting [12]) it was 1.1 %ID/g; in the data set “in vivo” (setting [13]), 4.4 %ID/g; in “in vivo” (athymic NMRI-Foxn1nu/Foxn1nu, spleen uptake), 5.4 %ID/g. In addition, the tissue uptake at 2 h in the data set “in vivo” (setting [14]) was 1.5 %ID/g. Besides, the tissue to tissue ratio at 1 h is 3 in “in vivo” (setting [15]); 0.8 in “in vivo” (setting [16]); 0.4 in “in vivo” (setting [17]); 6.3 in “in vivo” (setting [18]); 3.9 in the data set “in vivo” (setting [19]). The tissue to tissue ratio at 2 h was determined as 5.7 in the data set “in vivo” (setting [15]); 0.8 in the data set “in vivo” (setting [16]); 0.3 in “in vivo” (setting [17]); 7.2 in the data set “in vivo” (setting [18]); 3.9 in “in vivo” (setting [19]). Besides, in data set [3], the “DU4475 tumor uptake after two hours as % of the 1 h-value” was “approx. 68%”. Besides, the “higher uptake in CMKLR1-positive DU4475 tumors than in target-negative A549 tumors” value in data set [3] came to 2.3 fold.
With `CSCC[C@H](NC(=O)CNC(=O)[C@@H]1CCCN1C(=O)[C@H](CC1CCCCC1)NC(=O)[C@H](Cc1ccc(O)cc1)NC(=O)CCCCCNC(=O)CN1CCN(CC(=O)O)CCN(CC(=O)O)CCN(CC(=O)O)CC1)C(=O)N[C@@H](Cc1ccc(O)cc1)C(=O)N[C@@H](C)C(=O)N[C@@H](Cc1ccccc1)C(=O)N[C@H](Cc1ccccc1)C(=O)O` [[^68Ga]Ga-DOTA-AHX-CG36, metal not drawn] ({DOTA-Ahx}-Y[Cha]PGMYAF[dF]-OH), in “in vivo” (setting [8]), the tissue uptake at 1 h is 6.4 %ID/g and the tissue uptake at 2 h came out at 4.9 %ID/g. Moreover, in data set [3], the “difference in uptake between target-positive and target-negative tumor” value is “no clear difference in uptake between target-positive and target-negative tumor”.
